T1: near full-length AR (nAR, aa 36-918) ligated to transcriptional activator VP16 (human, UniProt P10275 36-918)
T1 construct: range 36-918; Mammalian two-hybrid construct, DU145 cells
T1 sequence: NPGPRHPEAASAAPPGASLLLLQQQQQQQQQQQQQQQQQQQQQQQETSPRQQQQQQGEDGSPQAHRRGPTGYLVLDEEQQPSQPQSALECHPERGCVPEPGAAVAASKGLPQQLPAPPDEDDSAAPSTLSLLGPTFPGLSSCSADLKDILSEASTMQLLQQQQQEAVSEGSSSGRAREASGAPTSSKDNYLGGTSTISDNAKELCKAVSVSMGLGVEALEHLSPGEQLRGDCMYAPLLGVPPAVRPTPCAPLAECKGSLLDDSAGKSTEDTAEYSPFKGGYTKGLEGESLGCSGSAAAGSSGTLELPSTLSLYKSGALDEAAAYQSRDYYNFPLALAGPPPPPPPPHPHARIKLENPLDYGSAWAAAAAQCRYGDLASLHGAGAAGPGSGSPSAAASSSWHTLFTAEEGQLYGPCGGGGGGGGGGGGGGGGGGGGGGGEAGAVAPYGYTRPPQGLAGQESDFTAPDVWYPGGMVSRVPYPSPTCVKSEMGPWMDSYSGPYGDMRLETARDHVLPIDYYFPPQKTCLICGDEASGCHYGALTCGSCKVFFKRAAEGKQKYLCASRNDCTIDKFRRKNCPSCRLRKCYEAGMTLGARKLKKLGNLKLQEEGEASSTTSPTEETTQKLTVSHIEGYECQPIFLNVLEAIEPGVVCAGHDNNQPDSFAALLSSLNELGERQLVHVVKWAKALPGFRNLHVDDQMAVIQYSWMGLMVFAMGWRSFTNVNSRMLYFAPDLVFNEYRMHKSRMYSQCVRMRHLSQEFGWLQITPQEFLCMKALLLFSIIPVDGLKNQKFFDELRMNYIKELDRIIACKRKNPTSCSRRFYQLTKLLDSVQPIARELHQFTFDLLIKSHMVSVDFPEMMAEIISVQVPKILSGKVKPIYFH

T2: human androgen receptor (AR), full length (human, UniProt P10275 1-920)
T2 sequence (looked up): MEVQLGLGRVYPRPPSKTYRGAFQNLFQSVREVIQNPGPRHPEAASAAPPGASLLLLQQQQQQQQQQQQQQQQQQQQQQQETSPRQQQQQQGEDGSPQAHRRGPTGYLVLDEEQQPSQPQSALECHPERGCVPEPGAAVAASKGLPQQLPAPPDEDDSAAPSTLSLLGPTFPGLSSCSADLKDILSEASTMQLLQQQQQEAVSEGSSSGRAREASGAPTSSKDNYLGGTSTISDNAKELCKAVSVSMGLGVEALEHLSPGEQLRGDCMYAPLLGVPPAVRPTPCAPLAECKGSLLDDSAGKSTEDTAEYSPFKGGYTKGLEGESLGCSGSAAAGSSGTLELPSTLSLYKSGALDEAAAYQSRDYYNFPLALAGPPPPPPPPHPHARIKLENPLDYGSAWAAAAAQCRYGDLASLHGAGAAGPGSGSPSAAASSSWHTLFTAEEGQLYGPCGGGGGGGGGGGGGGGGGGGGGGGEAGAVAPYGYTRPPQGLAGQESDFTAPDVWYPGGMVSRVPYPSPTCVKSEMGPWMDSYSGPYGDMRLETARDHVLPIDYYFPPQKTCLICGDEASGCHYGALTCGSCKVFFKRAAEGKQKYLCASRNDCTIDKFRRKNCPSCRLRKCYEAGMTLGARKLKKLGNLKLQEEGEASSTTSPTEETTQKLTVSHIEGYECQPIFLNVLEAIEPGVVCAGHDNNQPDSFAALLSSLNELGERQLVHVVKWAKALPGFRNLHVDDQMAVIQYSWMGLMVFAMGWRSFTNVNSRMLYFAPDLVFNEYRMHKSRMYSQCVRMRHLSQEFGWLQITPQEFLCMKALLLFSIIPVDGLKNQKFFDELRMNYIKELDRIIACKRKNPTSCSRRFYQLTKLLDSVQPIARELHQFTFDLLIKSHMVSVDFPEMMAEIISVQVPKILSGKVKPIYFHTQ

B1: VP16-ARA55: full-length ARA55 fused to the activation domain of VP16 (other)
chain: MPRSGAPKERPAEPLTPPPSYGHQPTGQSGESSGASGDKDHLYSTVCKPRSPKPAAPAAPPFSSSSGVLGTGLCELDRLLQELNATQFNITDEIMSQFPSSKVASGEQKEDQSEDKKRPSLPSSPSPGLPKASATSATLELDRLMASLPDFRVQNHLPASGPTQPPVVSSTNEGSPSPPEPTAKGSLDTMLGLLQSDLSRRGVPTQAKGLCGSCNKPIAGQVVTALGRAWHPEHFVCGGCSTALGGSSFFEKDGAPFCPECYFERFSPRCGFCNQPIRHKMVTALGTHWHPEHFCCVSCGEPFGDEGFHEREGRPYCRRDFLQLFAPRCQGCQGPILDNYISALSLLWHPDCFVCRECFAPFSGGSFFEHEGRPLCENHFHARRGSLCPTCGLPVTGRCVSALGRRFHPDHFACTFCLRPLTKGSFQERAGKPYCQPCFLKLFG
notes: Mammalian two-hybrid construct, expressed in DU145 cells
B2: VP16 vector (VP16 activation domain alone) (other)
chain: APPTDVSLGDELHLDGEDVAMAHADALDDFDLDMLGDGDSPGPGFTPHDSAPYGALDMADFEFEQMFTDALGIDEYGG
notes: Control of the mammalian two-hybrid assay; also called pCMX-VP16
B3: PR-LBD (receptor, UniProt P06401 679-933, looked up)
chain: QDIQLIPPLINLLMSIEPDVIYAGHDNTKPDTSSSLLTSLNQLGERQLLSVVKWSKSLPGFRNLHIDDQITLIQYSWMSLMVFGLGWRSYKHVSGQMLYFAPDLILNEQRMKESSFYSLCLTMWQIPQEFVKLQVSQEEFLCMKVLLLLNTIPLEGLRSQTQFEEMRSSYIRELIKAIGLRQKGVVSSSQRFYQLTKLLDNLHDLVKQLHLYCLNTFIQSRALSVEFPEMMSEVIAAQLPKILAGMVKPLLFHKK
notes: domain: LBD; Control in the mammalian two-hybrid assay; the construct is not described
B4: ARA70 (other, UniProt Q13772 1-614, looked up)
chain: MNTFQDQSGSSSNREPLLRCSDARRDLELAIGGVLRAEQQIKDNLREVKAQIHSCISRHLECLRSREVWLYEQVDLIYQLKEETLQQQAQQLYSLLGQFNCLTHQLECTQNKDLANQVSVCLERLGSLTLKPEDSTVLLFEADTITLRQTITTFGSLKTIQIPEHLMAHASSANIGPFLEKRGCISMPEQKSASGIVAVPFSEWLLGSKPASGYQAPYIPSTDPQDWLTQKQTLENSQTSSRACNFFNNVGGNLKGLENWLLKSEKSSYQKCNSHSTTSSFSIEMEKVGDQELPDQDEMDLSDWLVTPQESHKLRKPENGSRETSEKFKLLFQSYNVNDWLVKTDSCTNCQGNQPKGVEIENLGNLKCLNDHLEAKKPLSTPSMVTEDWLVQNHQDPCKVEEVCRANEPCTSFAECVCDENCEKEALYKWLLKKEGKDKNGMPVEPKPEPEKHKDSLNMWLCPRKEVIEQTKAPKAMTPSRIADSFQVIKNSPLSEWLIRPPYKEGSPKEVPGTEDRAGKQKFKSPMNTSWCSFNTADWVLPGKKMGNLSQLSSGEDKWLLRKKAQEVLLNSPLQEEHNFPPDHYGLPAVCDLFACMQLKVDKEKWLYRTPLQM
notes: also called AR associated protein ARA70
B5: AR-LBD (aa 590-918) ligated to transcriptional activator VP16 (receptor)
chain: GKQKYLCASRNDCTIDKFRRKNCPSCRLRKCYEAGMTLGARKLKKLGNLKLQEEGEASSTTSPTEETTQKLTVSHIEGYECQPIFLNVLEAIEPGVVCAGHDNNQPDSFAALLSSLNELGERQLVHVVKWAKALPGFRNLHVDDQMAVIQYSWMGLMVFAMGWRSFTNVNSRMLYFAPDLVFNEYRMHKSRMYSQCVRMRHLSQEFGWLQITPQEFLCMKALLLFSIIPVDGLKNQKFFDELRMNYIKELDRIIACKRKNPTSCSRRFYQLTKLLDSVQPIARELHQFTFDLLIKSHMVSVDFPEMMAEIISVQVPKILSGKVKPIYFH
notes: range 590-918; Mammalian two-hybrid construct, DU145 cells; also called pCMX-VP16-AR
B6: Rb fragment (aa 371-928) ligated to the DBD of GAL4 (other)
chain: MKLLSSIEQACDICRLKKLKCSKEKPKCAKCLKNNWECRYSPKTKRSPLTRAHLTEVESRLERLEQLFLLIFPREDLDMILKMDSLQDIKALLTGLFVQDNVNKDAVTDRLASVETDMPLTLRQHRISATSSSEESSNKGQRQLTVSPHTPVRTVMNTIQQLMMILNSASDQPSENLISYFNNCTVNPKESILKRVKDIGYIFKEKFAKAVGQGCVEIGSQRYKLGVRLYYRVMESMLKSEEERLSIQNFSKLLNDNIFHMSLLACALEVVMATYSRSTSQNLDSGTDLSFPWILNVLNLKAFDFYKVIESFIKAEGNLTREMIKHLERCEHRIMESLAWLSDSPLFDLIKQSKDREGPTDHLESACPLNLPLQNNHTAADMYLSPVRSPKKKGSTTRVNSTANAETQATSAFQTQKPLKSTSLSLFYKKVYRLAYLRLNTLCERLLSEHPELEHIIWTLFQHTLQNEYELMRDRHLDQIMMCSMYGICKVKNIDLKFKIIVTAYKDLPHAVQETFKRVLIKEEEYDSIIVFYNSVFMQRLKTNILQYASTRPPTLSPIPHIPRSPYKFPSSPLRIPGGNIYISPLKSPYKISEGLPTPTKMTPRSRILVSIGESFGTSEKFQKINQMVCNSDRVLKRSAEGSNPPKPLKKLRFDIEGSDEADGSKHLPGESKFQQKLAEMTSTRTRMQKQKMNDSMDTSNKEEK
B7: C-terminal domain of ARA55 (amino acids 251-444) (other)
chain: EKDGAPFCPECYFERFSPRCGFCNQPIRHKMVTALGTHWHPEHFCCVSCGEPFGDEGFHEREGRPYCRRDFLQLFAPRCQGCQGPILDNYISALSLLWHPDCFVCRECFAPFSGGSFFEHEGRPLCENHFHARRGSLCPTCGLPVTGRCVSALGRRFHPDHFACTFCLRPLTKGSFQERAGKPYCQPCFLKLFG
notes: also called ARA55251-444; C-terminus of ARA55

Experiment [1] concerns the target T3, GAL0 empty vector (GAL4 DBD alone) (UniProt P04386 1-147).
T3 construct: range 1-147; Control of the mammalian two-hybrid assay; also called pGAL0
Put plainly: mammalian two-hybrid, CAT reporter, DU145 cells.

Experiment [2] deals with T4, GAL0AR: hormone binding domain of wtAR fused to the GAL4 DBD (human, UniProt P04386 1-147; P10275 625-920).
T4 construct: range 1-147;domain: hinge and LBD; also called pGAL0-AR (wild-type); GAL4DBD fused to E region of human AR
The experiment in a line: mammalian two-hybrid, CAT reporter, DU145 cells.

In experiment [3] the target is T1, near full-length AR (nAR, aa 36-918) …. The experiment in a line: mammalian two-hybrid, CAT reporter, DU145 cells.
In experiment [4] the target is T2, human androgen receptor (AR), full …. The experiment in a line: cell-based or functional assay.
The target in experiment [5] is B6. Put plainly: mammalian two-hybrid, CAT reporter, DU145 cells.
Experiment [6] has as its target T1, near full-length AR (nAR, aa 36-918) …. The experiment in a line: cell-based or functional assay.
Experiment [7] has as its target T2, human androgen receptor (AR), full …. Put plainly: assay not given.

Regarding B1, the binding result in experiment [1] is reported as “no binding”.
B2: the binding result in experiment [2] was “no binding”.
Take B3: the binding result in experiment [3] was “no binding”.
For B4, the “induced CAT activity in mammalian two-hybrid assay” value in experiment [4] was 12 fold. For the same molecule, the binding result in experiment [5] was “no binding”.
Consider B5, for which, in experiment [5], the binding result is “no binding”.
B6: the “CAT activity, mammalian two-hybrid system in DU145 cells” value in experiment [6] is 3 fold.
On to B7, for which the binding result in experiment [7] was “binds”.

The values are drawn from patent US20030198990A1 (UNIVERSITY OF ROCHESTER, published 2003).
